# B1: Early protein (Human adenovirus C serotype 5 (HAdV-5)), P03255-2 (parent)
# chain: MRHIICHGGVITEEMAASLLDQLIEEVLADNLPPPSHFEPPTLHELYDLDVTAPEDPNEEAVSQIFPDSVMLAVQEGIDLLTFPPAPGSPEPPHLSRQPEQPEQRALGPVSMPNLVPEVIDLTCHEAGFPPSDDEDEEGPVSEPEPEPEPEPEPARPTRRPKMAPAILRRPTSPVSRECNSSTDSCDSGPSNTPPEIHPVVPLCPIKPVAVRVGGRRQAVECIEDLLNEPGQPLDLSCKRPRP
# B2: Early protein (Human adenovirus C serotype 5 (HAdV-5)), P03255-2 (parent)
# chain: B1 chain
# partner: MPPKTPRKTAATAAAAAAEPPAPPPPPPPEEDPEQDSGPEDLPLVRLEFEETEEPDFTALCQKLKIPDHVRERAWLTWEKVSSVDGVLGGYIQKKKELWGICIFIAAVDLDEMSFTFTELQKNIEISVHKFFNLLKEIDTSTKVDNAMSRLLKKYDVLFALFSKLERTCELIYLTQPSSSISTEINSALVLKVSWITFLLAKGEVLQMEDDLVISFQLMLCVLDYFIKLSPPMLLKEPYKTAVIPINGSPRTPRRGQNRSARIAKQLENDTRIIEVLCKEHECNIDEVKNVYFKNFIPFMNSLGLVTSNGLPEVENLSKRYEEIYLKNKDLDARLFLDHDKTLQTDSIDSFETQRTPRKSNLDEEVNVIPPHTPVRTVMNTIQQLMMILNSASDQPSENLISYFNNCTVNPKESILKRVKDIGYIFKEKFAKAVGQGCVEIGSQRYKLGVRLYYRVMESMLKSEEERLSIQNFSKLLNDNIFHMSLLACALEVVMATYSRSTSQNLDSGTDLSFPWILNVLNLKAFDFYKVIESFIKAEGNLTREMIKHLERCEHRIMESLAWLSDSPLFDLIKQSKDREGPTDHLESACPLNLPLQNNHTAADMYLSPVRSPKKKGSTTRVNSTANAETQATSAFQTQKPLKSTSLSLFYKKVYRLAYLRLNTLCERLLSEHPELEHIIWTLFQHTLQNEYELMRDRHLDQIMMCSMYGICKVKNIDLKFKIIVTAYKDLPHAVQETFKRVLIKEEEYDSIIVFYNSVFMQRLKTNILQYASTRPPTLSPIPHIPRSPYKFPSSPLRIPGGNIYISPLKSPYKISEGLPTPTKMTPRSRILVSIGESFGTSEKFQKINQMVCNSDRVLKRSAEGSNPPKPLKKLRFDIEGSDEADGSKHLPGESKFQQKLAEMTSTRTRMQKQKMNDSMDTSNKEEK
# Variants of: B1
# Details: with ep300_human EP300, Q09472
# ep300_human EP300, Q09472, sequence (Q09472 whole entry): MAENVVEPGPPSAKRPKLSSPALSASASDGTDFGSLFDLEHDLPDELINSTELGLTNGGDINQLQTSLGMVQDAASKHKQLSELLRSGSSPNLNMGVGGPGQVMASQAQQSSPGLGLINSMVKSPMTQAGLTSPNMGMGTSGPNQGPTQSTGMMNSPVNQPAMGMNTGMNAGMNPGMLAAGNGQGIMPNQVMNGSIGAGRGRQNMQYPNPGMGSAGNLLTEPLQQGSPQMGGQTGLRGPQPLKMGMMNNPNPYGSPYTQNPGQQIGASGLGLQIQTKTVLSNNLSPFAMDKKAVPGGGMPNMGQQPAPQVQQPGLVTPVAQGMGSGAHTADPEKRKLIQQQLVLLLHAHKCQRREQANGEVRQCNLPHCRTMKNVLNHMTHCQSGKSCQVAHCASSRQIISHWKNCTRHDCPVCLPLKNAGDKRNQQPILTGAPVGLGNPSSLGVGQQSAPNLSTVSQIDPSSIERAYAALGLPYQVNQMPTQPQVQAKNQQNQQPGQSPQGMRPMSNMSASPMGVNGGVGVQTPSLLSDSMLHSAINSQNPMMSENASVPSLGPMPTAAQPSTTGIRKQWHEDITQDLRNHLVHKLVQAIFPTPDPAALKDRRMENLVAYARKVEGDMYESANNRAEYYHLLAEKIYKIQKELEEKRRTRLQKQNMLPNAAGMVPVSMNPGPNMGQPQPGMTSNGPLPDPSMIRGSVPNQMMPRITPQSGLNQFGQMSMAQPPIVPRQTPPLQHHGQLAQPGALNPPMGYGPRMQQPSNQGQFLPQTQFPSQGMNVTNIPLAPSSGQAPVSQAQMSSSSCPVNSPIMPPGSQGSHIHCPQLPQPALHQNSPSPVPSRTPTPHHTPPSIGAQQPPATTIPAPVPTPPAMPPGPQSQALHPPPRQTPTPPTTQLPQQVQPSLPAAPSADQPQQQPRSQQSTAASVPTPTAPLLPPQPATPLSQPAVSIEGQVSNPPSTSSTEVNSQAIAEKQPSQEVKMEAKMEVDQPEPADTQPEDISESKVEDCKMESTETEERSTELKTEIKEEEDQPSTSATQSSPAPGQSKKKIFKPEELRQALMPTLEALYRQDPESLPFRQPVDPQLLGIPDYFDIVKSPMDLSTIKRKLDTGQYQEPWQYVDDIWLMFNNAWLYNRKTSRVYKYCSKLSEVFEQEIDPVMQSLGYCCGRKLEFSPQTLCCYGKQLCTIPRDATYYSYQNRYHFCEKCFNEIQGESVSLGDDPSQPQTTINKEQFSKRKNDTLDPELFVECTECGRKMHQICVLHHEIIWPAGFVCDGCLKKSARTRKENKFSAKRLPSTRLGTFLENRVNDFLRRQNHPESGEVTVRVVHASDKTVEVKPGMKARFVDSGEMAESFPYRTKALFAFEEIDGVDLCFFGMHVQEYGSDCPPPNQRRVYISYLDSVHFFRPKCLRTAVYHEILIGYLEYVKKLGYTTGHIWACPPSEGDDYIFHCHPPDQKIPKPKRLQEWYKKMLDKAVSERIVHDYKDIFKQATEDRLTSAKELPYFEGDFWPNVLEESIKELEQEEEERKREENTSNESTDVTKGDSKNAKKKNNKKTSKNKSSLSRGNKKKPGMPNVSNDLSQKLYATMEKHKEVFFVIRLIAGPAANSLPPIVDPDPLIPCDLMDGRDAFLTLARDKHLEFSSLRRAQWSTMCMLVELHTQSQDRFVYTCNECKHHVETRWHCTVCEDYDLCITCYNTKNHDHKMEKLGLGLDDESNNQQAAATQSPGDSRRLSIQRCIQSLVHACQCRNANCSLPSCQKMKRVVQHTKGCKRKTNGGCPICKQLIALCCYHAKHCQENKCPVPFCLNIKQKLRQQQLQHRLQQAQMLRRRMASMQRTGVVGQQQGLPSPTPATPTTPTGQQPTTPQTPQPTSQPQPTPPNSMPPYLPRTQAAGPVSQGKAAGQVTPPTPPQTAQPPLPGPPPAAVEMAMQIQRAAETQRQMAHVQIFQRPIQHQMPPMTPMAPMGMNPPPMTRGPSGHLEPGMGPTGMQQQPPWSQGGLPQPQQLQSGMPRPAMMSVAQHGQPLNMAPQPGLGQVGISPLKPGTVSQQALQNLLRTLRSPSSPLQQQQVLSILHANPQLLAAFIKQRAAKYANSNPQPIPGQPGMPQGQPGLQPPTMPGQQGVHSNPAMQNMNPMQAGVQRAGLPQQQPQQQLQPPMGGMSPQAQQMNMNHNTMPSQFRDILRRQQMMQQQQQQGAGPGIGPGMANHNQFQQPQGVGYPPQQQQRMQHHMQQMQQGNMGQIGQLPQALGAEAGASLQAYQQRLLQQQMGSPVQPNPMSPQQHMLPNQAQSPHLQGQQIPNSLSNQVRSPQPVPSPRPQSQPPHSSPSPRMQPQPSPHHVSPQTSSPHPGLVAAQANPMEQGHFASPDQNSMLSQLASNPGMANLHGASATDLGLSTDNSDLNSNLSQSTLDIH
row,Variant,effect of a mutation on the interaction
1,R2G,disrupting interaction

# Variants of: B1
# Details: with stat1_human STAT1, P42224
# stat1_human STAT1, P42224, sequence (P42224 whole entry): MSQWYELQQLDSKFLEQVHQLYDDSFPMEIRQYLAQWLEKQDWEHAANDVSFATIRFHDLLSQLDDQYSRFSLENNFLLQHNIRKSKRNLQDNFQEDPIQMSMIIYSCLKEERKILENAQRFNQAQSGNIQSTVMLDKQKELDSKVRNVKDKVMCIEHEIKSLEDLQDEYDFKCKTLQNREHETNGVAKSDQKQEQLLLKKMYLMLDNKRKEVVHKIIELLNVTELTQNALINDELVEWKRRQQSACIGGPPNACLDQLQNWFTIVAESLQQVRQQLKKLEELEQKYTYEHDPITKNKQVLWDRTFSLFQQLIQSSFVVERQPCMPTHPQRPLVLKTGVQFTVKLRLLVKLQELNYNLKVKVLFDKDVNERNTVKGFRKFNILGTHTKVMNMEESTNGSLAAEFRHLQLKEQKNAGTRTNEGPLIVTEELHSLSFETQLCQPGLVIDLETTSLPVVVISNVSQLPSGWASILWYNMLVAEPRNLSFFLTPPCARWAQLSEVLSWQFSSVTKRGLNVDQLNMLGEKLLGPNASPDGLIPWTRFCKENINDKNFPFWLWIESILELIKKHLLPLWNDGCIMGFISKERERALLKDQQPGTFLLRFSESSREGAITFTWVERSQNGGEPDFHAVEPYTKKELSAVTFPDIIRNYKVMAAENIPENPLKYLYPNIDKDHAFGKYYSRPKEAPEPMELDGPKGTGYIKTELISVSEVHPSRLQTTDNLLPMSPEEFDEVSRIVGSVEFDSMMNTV
row,Variant,effect of a mutation on the interaction
1,R2G,decreasing interaction

# Variants of: B2
# Details: with rb_human RB1, P06400
row,Variant,effect of a mutation on the interaction
1,R2G,decreasing interaction
